Source: the supplement of paper PMC9732359
± gives the uncertainty stated by the source.

Experiment: protein stability index of a GFP-peptide fusion (yeast GPS) (PSI 1-4); higher = more stable; sorted into four equal gates, so the index is relative within each strain
In short: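 Each library plasmid carries Cherry plus GFP with a tiled 17-residue yeast protein peptide fused downstream, and the pooled library was carried in yeast. Mid-log cultures in leucine-free medium were sorted into four equal gates by GFP/Cherry ratio. Reads from Illumina sequencing of PCR-amplified plasmids from each gate were assigned to strains by barcodes. Per peptide, the protein stability index was computed as the summed products of gate read frequency and gate number.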

Sequence	protein stability index (doa10∆)	protein stability index (pdr5∆)	protein stability index (san1∆)	protein stability index (ubr1∆)
LSSAGAKSTVETFISSM [RIP1]	3.08 ± 0.17	2.8 ± 0.13	2.86 ± 0.072	2.69 ± 0.11
LSSGENRYAFSQPTNST [SMC4]	3.22 ± 0.14	2.96 ± 0.11		2.85 ± 0.11
LSSHSSTNSNSKPSTAS [RPN4]	2.61 ± 0.087	2.71 ± 0.082	2.93 ± 0.059	2.86 ± 0.052
LSTTPTKSNRRVSHSDT [SIR4]		3.06 ± 0.26	3.33 ± 0.088	3.25 ± 0.2
LSVEIGVLTDISSLIGG [NUT1]	1.32 ± 0.13	1.95 ± 0.11	1.89 ± 0.25	2.18 ± 0.12
LTAIPILLEPIYEVDIT [SNU114]	2.24 ± 0.047	1.75 ± 0.041	1.94 ± 0.054	2.19 ± 0.038
LTFHTLKKANIIYHTTF [YLR018C/POM34]	1.9 ± 0.036	2.25 ± 0.038	2 ± 0.05	1.98 ± 0.028
LTSSKSVIVSQFCAFDS [SIN4]	2 ± 0.066	2.14 ± 0.06	1.98 ± 0.1	1.64 ± 0.066
LTVSIKIALMNIPKPLN [RGR1]	1.19 ± 0.044	1.43 ± 0.057	1.54 ± 0.059	1.66 ± 0.032
LTYAQQQLNKQRQDFER [SNF6]	2.49 ± 0.073	2.44 ± 0.071	2.17 ± 0.083	2.6 ± 0.038
LVADGVFYAELNEFFTR [RPS3]	3.2 ± 0.12	3.1 ± 0.12	3.08 ± 0.077	3.28 ± 0.078
LVALKRNADELSSYQKK [PRE5]	2.4 ± 0.048	2.43 ± 0.041	2.68 ± 0.043	2.28 ± 0.033
LVDLVSHFSPDIKAAVD [ITC1]	1.95 ± 0.063	1.99 ± 0.071	2.09 ± 0.076	2.54 ± 0.05
LVEVEDEKIEAIKKKEK [SRB7]	2.57 ± 0.16	3.09 ± 0.16	3.05 ± 0.094	3.39 ± 0.17
LVGEYWEQLKITVVPVV [QCR6]	1.38 ± 0.26			
LVGRLRKCETQKQWDDI [YCS4]	2.21 ± 0.069	1.74 ± 0.057	1.53 ± 0.15	1.48 ± 0.072
LVHTQIRKTPLAQKKAH [RPL3]	1.37 ± 0.057	1.38 ± 0.049	1.65 ± 0.069	1.63 ± 0.034
LVIKSGKYTLGYKSTVK [RPL30]	2.75 ± 0.079	2.96 ± 0.061	2.5 ± 0.079	2.87 ± 0.05
LVKTKELIKNYITARIM [FAS1]		2.91 ± 0.19	3.02 ± 0.27	2.64 ± 0.073
LVQMYIGEGAKLVRDAF [RPT5]			2.51 ± 0.27	
LVSLLDENDSKKNNAAS [YAR002W/NUP60]	3 ± 0.07	2.92 ± 0.071	2.86 ± 0.092	3.08 ± 0.056
LVSSASQQLLEILVTEL [RPN2]	1.93 ± 0.059	2.27 ± 0.058	2.16 ± 0.092	1.8 ± 0.051
LWALLNFLLPDIFGDSE [ISW2]	2.15 ± 0.05	1.98 ± 0.05	2.52 ± 0.07	2.64 ± 0.043
LWDVATGETYQRFVGHK [ASC1]	2.98 ± 0.19	3.42 ± 0.17	1.59 ± 0.17	3.4 ± 0.094
LWSIHPSRQFDHYESNQ [SRB8]	1.75 ± 0.074	2.24 ± 0.068	2.13 ± 0.11	2.64 ± 0.062
LYAERVQDRGLSAVAQA [RPS3]	3.09 ± 0.069	3.28 ± 0.065	3.3 ± 0.09	3.22 ± 0.044

Sequence	protein stability index (doa10∆)	protein stability index (pdr5∆)	protein stability index (san1∆)	protein stability index (ubr1∆)
LYDHWDKYHEQWIKFLL [SSN8]	3.16 ± 0.2	3.1 ± 0.13	2.84 ± 0.071	2.72 ± 0.054
LYFEIIHGVLKNVDREV [FAS2]	3.04 ± 0.09	2.04 ± 0.099	2.63 ± 0.13	1.64 ± 0.18
LYGKRFFPYYVHTIIAG [PRE7]	1.15 ± 0.032	1.23 ± 0.039	1.13 ± 0.11	1.14 ± 0.041
LYKFQNFQDLSYLSETL [YML103C/NUP188]	2.94 ± 0.091	2.87 ± 0.08	2.64 ± 0.12	2.49 ± 0.11
LYKTFFKRNAVFVGTIF [QCR9]	1.78 ± 0.075	1.36 ± 0.051	1.39 ± 0.098	1.36 ± 0.054
LYNFLHKYVLTLQLYMV [RGR1]	2.04 ± 0.058	1.43 ± 0.042	1.78 ± 0.13	1.51 ± 0.039
LYPCYFDINRSHKEGRR [SEC65]	1.15 ± 0.17	1.93 ± 0.16	1.09 ± 0.24	1.1 ± 0.08
LYQDMAARHRARFRSIH [RPL20A]	2.81 ± 0.071	2.71 ± 0.048	2.96 ± 0.051	2.95 ± 0.07
LYRSIESGEFDFDLFKE [YJL039C/NUP192]	3.1 ± 0.12	2.93 ± 0.1	3.01 ± 0.069	2.91 ± 0.11
MAKDIEISASESKFILE [RRP45]	3.17 ± 0.092	3.06 ± 0.14	2.99 ± 0.064	3.02 ± 0.093
MALKKNTHNKSTKRVTK [POP7]	2.71 ± 0.1	2.73 ± 0.11	2.82 ± 0.053	2.84 ± 0.06
MANKEWRVREASTSALL [ECM29]				2.26 ± 0.2
MAPVKSQESINQKLALV [RPL30]	2.05 ± 0.11	2.53 ± 0.14	2.18 ± 0.13	2.25 ± 0.061
MAQRTLKNKYESYDAAL [FAS2]	3.147 ± 0.019	3.059 ± 0.017	2.999 ± 0.015	3.064 ± 0.012
MASGSTTFTKVAAKWNT [PRP8]	2.58 ± 0.072	2.52 ± 0.069	2.51 ± 0.084	2.93 ± 0.07
MATPSFGNSSPQLTFTH [YML103C/NUP188]	2.75 ± 0.12	2.1 ± 0.068	2.83 ± 0.067	2.73 ± 0.062
MEADPSLHPLFEQFEKF [RPN9]	2.82 ± 0.073	2.84 ± 0.061	2.39 ± 0.1	2.55 ± 0.05
MEDKISEFLNVPFESLQ [YIL149C/MLP2]	3.18 ± 0.09	3.35 ± 0.079	3.33 ± 0.067	3.06 ± 0.057
MEDPPSTVSGELNDNPA [YMR153W/NUP53]	2.45 ± 0.081	2.81 ± 0.054	2.84 ± 0.077	2.83 ± 0.051
MEETEQKKIQINKEMGE [SMC3]				2.49 ± 0.26
MELLTQMDGFDNLGQTK [RPT4]	3.53 ± 0.09	3.56 ± 0.11	3.65 ± 0.081	3.44 ± 0.079
MEMSEKIQFILEQMELS [RPN5]		2.65 ± 0.24	2.35 ± 0.29	2.66 ± 0.19
MERFSVLCNSNISKSRA [RRP6]	2.42 ± 0.066	2.46 ± 0.096	1.98 ± 0.084	2.12 ± 0.056
MESIGSDILTAEKMRGN [RRP4]	3.1 ± 0.13	3.43 ± 0.12	3.14 ± 0.093	3.34 ± 0.092
MFGIRSGNNNGGFTNLT [YDL088C/ASM4]	3.23 ± 0.085	3.41 ± 0.059	3.19 ± 0.054	3.4 ± 0.044
MFIEEPTRMVRVAKGSG [SRP54]	3.09 ± 0.19	2.95 ± 0.23	2.75 ± 0.24	3.26 ± 0.15

Sequence	protein stability index (doa10∆)	protein stability index (pdr5∆)	protein stability index (san1∆)	protein stability index (ubr1∆)
MFTATMTPVIEKIAAGY [PRP28]	2.2 ± 0.13	1.81 ± 0.11	1.5 ± 0.15	2.35 ± 0.076
MGAINNNIPSLTSFAEE [SNF6]	3.2 ± 0.13	3.43 ± 0.1	3.37 ± 0.15	3.35 ± 0.1
MGRMHSAGKGISSSAIP [RPS13]	2.74 ± 0.043	2.61 ± 0.068	3.11 ± 0.048	2.88 ± 0.041
MHRKSLRRASATVPSAP [YAR002W/NUP60]	2.64 ± 0.071	2.82 ± 0.092	2.39 ± 0.064	2.74 ± 0.063
MIELICSSATVPKHMLD [AAR2]	1.85 ± 0.082	2.26 ± 0.078	1.82 ± 0.11	1.94 ± 0.058
MIFETIVDGKLKTEKIF [FAS1]	1.8 ± 0.07	2.21 ± 0.12	1.89 ± 0.1	2.17 ± 0.08
MKESVVEINSSESDLDE [ESC2]	3.35 ± 0.071	3.06 ± 0.086	3.06 ± 0.079	3.16 ± 0.068
MKVEVDSFSGAKIYPGR [RPL24B]	3.11 ± 0.18	3.36 ± 0.15	2.52 ± 0.18	2.92 ± 0.18
MKYIQTEQQIEIPEGVT [RPL9B]	2.4 ± 0.059	2.8 ± 0.063	2.39 ± 0.064	2.64 ± 0.053
MLGEDEGNTVLEKGNNP [SWP82]	3.67 ± 0.13	3.22 ± 0.19	3.11 ± 0.099	3.69 ± 0.16
MLPGSSNGGGKVKPIRG [RPO31]	3 ± 0.073	3.36 ± 0.13	3.15 ± 0.076	3.07 ± 0.068
MLRTVTSKTVSNQFKRS [COR1]	3.11 ± 0.15	2.9 ± 0.092	2.92 ± 0.083	3.02 ± 0.1
MLSFCPSCNNMLLITSG [RPC11]	1.26 ± 0.082	2.97 ± 0.13		2.83 ± 0.072
MLVDLNVPWPQNSYADK [RPP1]	1.59 ± 0.27	1.08 ± 0.14		1.12 ± 0.15
MLWGGASMLGLFVFTEG [QCR10]	1.96 ± 0.14	1.82 ± 0.11	2.43 ± 0.26	3.19 ± 0.2
MNAGGLFGAKPQNTTAT [YGR119C/NUP57]	2.43 ± 0.049	3.29 ± 0.059	3.35 ± 0.058	2.72 ± 0.059
MNECIADQDMEDEDMVD [ESC2]	3.18 ± 0.072	3.35 ± 0.11	3.3 ± 0.048	3.08 ± 0.058
MNEMCKKINAKEKLIGW [RPN8]	2.86 ± 0.043	3.13 ± 0.056	3.03 ± 0.046	3.08 ± 0.031
MNIKPVQKQTRAGQRTR [RPS2]	2.67 ± 0.1	2.81 ± 0.11	1.92 ± 0.089	2.58 ± 0.073
MNKIFTIFKSGEIDFIK [YML103C/NUP188]	2.51 ± 0.091	2.62 ± 0.054	2.41 ± 0.075	2.59 ± 0.06
MNLVLNECIEERVPKTQ [SMB1]	2.3 ± 0.23			
MNVQDRRRLLGPAAAKP [MTR3]	3.23 ± 0.11	3.1 ± 0.11	2.96 ± 0.085	2.97 ± 0.089
MPGGYFHSEISPDSTVN [YAR002W/NUP60]	2.56 ± 0.076	3 ± 0.095	2.54 ± 0.061	2.76 ± 0.063
MPLKILLATKQHDSSAN [CSN12]	2.48 ± 0.076	1.97 ± 0.044	2.09 ± 0.063	2.27 ± 0.044
